Source: paper PMC10995192 (Nature Communications, 2024)
One block for each molecule: values may come before it.

Tests used:
[1] = biological target: SNS-101, fully human monoclonal IgG1 kappa antibody against VISTA (human); test: SPR; SNS-101 captured on IgG capture chip, VISTA-His as analyte (0-30 nM), 25 C, PBS 0.05% Tween 20, pH 6.2; 1:1 Langmuir MTL fit
[2] = biological target: SNS-101, fully human monoclonal IgG1 kappa antibody against VISTA (human); test: SPR; SNS-101 captured on IgG capture chip, VISTA-His as analyte (0-240 nM), 25 C, PBS 0.05% Tween 20, pH 6.6; 1:1 Langmuir MTL fit
[3] = biological target: SNS-101, fully human monoclonal IgG1 kappa antibody against VISTA (human); test: SPR; SNS-101 captured on IgG capture chip, VISTA-His as analyte (0-240 nM), 25 C, PBS 0.05% Tween 20, pH 6.4; 1:1 Langmuir MTL fit
[4] = biological target: SNS-101, fully human monoclonal IgG1 kappa antibody against VISTA (human); test: SPR; SNS-101 captured on IgG capture chip, VISTA-His as analyte (0-240 nM), 25 C, PBS 0.05% Tween 20, pH 6.8; 1:1 Langmuir MTL fit
[5] = biological target: SNS-101, fully human monoclonal IgG1 kappa antibody against VISTA (human); test: SPR; SNS-101 captured on IgG capture chip, VISTA-His as analyte (0-30 nM), 25 C, PBS 0.05% Tween 20, pH 6.0; 1:1 Langmuir MTL fit
[6] = biological target: SNS-101, fully human monoclonal IgG1 kappa antibody against VISTA (human); test: SPR; SNS-101 captured on IgG capture chip, VISTA-His as analyte (0-480 nM), 25 C, PBS 0.05% Tween 20, pH 7.4; 1:1 Langmuir MTL fit
[7] = biological target: SNS-101, fully human monoclonal IgG1 kappa antibody against VISTA (human); test: SPR; SNS-101 captured on IgG capture chip, VISTA-His as analyte (0-480 nM), 25 C, PBS 0.05% Tween 20, pH 7.2; 1:1 Langmuir MTL fit
[8] = biological target: SNS-101, fully human monoclonal IgG1 kappa antibody against VISTA (human); test: SPR; SNS-101 captured on IgG capture chip, VISTA-His as analyte (0-30 nM), 25 C, PBS 0.05% Tween 20, pH 5.8; 1:1 Langmuir MTL fit
[9] = biological target: SNS-101, fully human monoclonal IgG1 kappa antibody against VISTA (human); test: SPR; SNS-101 captured on IgG capture chip, VISTA-His as analyte (0-480 nM), 25 C, PBS 0.05% Tween 20, pH 7.0; 1:1 Langmuir MTL fit
[10] = biological target: SNS-101, fully human monoclonal IgG1 kappa anti-VISTA antibody (human); test: SPR; SNS-101 captured on IgG capture chip, VISTA-His (0-30 nM) as analyte; pH 6.0, PBS + 0.05% Tween 20, 25 °C; 1:1 Langmuir MTL fit; pH series
[11] = biological target: SNS-101, fully human monoclonal IgG1 kappa anti-VISTA antibody (human); test: SPR; SNS-101 captured on IgG capture chip, VISTA-His (0-480 nM) as analyte; pH 7.2, PBS + 0.05% Tween 20, 25 °C; 1:1 Langmuir MTL fit; pH series
[12] = biological target: SNS-101, fully human monoclonal IgG1 kappa anti-VISTA antibody (human); test: SPR; panel of VISTA-His variants and wild type as analytes over captured SNS-101; pH 5.8 (PBS, 0.05% Tween-20), 25 °C
[13] = biological target: SNS-101, fully human monoclonal IgG1 kappa anti-VISTA antibody (human); test: SPR; SNS-101 captured on IgG capture chip, VISTA-His (0-240 nM) as analyte; pH 6.8, PBS + 0.05% Tween 20, 25 °C; 1:1 Langmuir MTL fit; pH series
[14] = biological target: SNS-101, fully human monoclonal IgG1 kappa anti-VISTA antibody (human); test: SPR; SNS-101 captured on IgG capture chip, VISTA-His (0-30 nM) as analyte; pH 6.2, PBS + 0.05% Tween 20, 25 °C; 1:1 Langmuir MTL fit; pH series
[15] = biological target: SNS-101, fully human monoclonal IgG1 kappa anti-VISTA antibody (human); test: SPR; SNS-101 captured on IgG capture chip, VISTA-His (0-480 nM) as analyte; pH 7.4, PBS + 0.05% Tween 20, 25 °C; 1:1 Langmuir MTL fit; pH series
[16] = biological target: SNS-101, fully human monoclonal IgG1 kappa anti-VISTA antibody (human); test: SPR; SNS-101 captured on IgG capture chip, VISTA-His (0-240 nM) as analyte; pH 6.6, PBS + 0.05% Tween 20, 25 °C; 1:1 Langmuir MTL fit; pH series
[17] = biological target: SNS-101, fully human monoclonal IgG1 kappa anti-VISTA antibody (human); test: SPR; SNS-101 captured on IgG capture chip, VISTA-His (0-480 nM) as analyte; pH 7.0, PBS + 0.05% Tween 20, 25 °C; 1:1 Langmuir MTL fit; pH series
[18] = biological target: SNS-101, fully human monoclonal IgG1 kappa anti-VISTA antibody (human); test: SPR; SNS-101 captured on IgG capture chip, VISTA-His (0-240 nM) as analyte; pH 6.4, PBS + 0.05% Tween 20, 25 °C; 1:1 Langmuir MTL fit; pH series
[19] = biological target: PSGL-1-19mer-Fc (19 N-terminal residues of human PSGL-1 fused to human IgG1-Fc) (human) (UniProt Q14242); test: SPR; PSGL-1-19mer-Fc captured on IgG capture chip, VISTA-His (0-960 nM) as analyte; pH 6.0, PBS + 0.05% Tween-20; KD from equilibrium analysis
Sequence of PSGL-1-19mer-Fc (19 N-terminal residues of human PSGL-1 fused to human IgG1-Fc) (human) (Q14242 42-412): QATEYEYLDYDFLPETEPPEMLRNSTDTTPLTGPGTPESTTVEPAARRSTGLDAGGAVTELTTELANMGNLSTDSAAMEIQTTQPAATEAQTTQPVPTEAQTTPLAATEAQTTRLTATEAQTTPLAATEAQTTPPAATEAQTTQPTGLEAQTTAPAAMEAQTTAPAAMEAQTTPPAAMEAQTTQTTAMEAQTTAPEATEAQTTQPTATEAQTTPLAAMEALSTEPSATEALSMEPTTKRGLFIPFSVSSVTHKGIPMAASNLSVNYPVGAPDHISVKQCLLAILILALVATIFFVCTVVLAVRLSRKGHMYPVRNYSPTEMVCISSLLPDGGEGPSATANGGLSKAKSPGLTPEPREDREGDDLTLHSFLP

[20] = biological target: SNS-101, fully human monoclonal IgG1 kappa anti-VISTA antibody (human); test: SPR; SNS-101 captured on IgG capture chip, VISTA-His (0-30 nM) as analyte; pH 5.8, PBS + 0.05% Tween 20, 25 °C; 1:1 Langmuir MTL fit; pH series
[21] = biological target: T1, C-terminal biotinylated hVISTA-Fc fusion protein (R&D Systems AVI7126-050) (human, UniProt Q9H7M9 33-194, biotin, C-terminal); test: ELISA; partner proteins coated at 5 µg/ml, biotinylated hVISTA-Fc serially diluted in 1% NFDM in PBS at pH 6.0; HRP-streptavidin; settings: both partners purified
T1 construct: VISTA, human; source: bought: R&D Systems AVI7126-050
T1 sequence (looked up): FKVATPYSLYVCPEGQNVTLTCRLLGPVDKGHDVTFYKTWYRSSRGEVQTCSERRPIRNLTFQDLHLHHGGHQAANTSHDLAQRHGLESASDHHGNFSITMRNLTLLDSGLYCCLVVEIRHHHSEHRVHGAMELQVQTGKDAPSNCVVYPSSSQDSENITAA

[22] = biological target: T2, VISTA-His H98A/H100A/H154A/H155A/R159A (human, UniProt Q9H7M9, H98A | H100A | H154A | H155A | R159A); test: SPR; panel of VISTA-His variants and wild type as analytes over captured SNS-101; pH 5.8 (PBS, 0.05% Tween-20), 25 °C; settings: both partners purified
T2 construct: VISTA, human; probably the extracellular domain; source: Expi293, purified (Ni-NTA)

Molecule: VISTA-His (wild-type human VISTA) (from UniProt Q9H7M9 33-311) (natural protein)
Kd [10]: 0.779 nM
koff [10]: 0.00213 s⁻¹
kon [10]: 2.74e+06 M⁻¹ s⁻¹
Kd [11]: 134 nM
koff [11]: 0.0147 s⁻¹
kon [11]: 110000 M⁻¹ s⁻¹
Kd [12]: 0.7 nM
koff [12]: 0.0022 s⁻¹
kon [12]: 3.2e+06 M⁻¹ s⁻¹
Kd [13]: 40.1 nM
koff [13]: 0.00842 s⁻¹
kon [13]: 210000 M⁻¹ s⁻¹
Kd [14]: 1.78 nM
koff [14]: 0.00219 s⁻¹
kon [14]: 1.23e+06 M⁻¹ s⁻¹
koff [15]: 0.0308 s⁻¹
kon [15]: 87200 M⁻¹ s⁻¹
Kd [16]: 18.5 nM
koff [16]: 0.00566 s⁻¹
kon [16]: 306000 M⁻¹ s⁻¹
Kd [17]: 77 nM
koff [17]: 0.0101 s⁻¹
kon [17]: 131000 M⁻¹ s⁻¹
Kd [18]: 5.96 nM
koff [18]: 0.00321 s⁻¹
kon [18]: 539000 M⁻¹ s⁻¹
Kd [19]: 600 nM
koff [20]: 0.00129 s⁻¹
kon [20]: 3.68e+06 M⁻¹ s⁻¹

B2: SNS-101, fully human monoclonal IgG1 kappa anti-VISTA antibody (antibody, V domains shown)
VH: EVQLVESGGGLVQPGGSLRLSCAASGFTFDDYSMNWVRQAPGKGLEWVSYISSDADTIYYADSVKGRFTISRDNAKNSLYLQMNSLRAEDTAVYYCAREAGGVLGRVDFQHWGQGTLVTVSS
VL: DIQLTQSPSSLSASVGDRVTITCQASQDISNYLNWYQQKPGKAPKLLIYDASNLGTGVPSRFSGSGSGTDFTFTISSLQPEDIATYYCQQADFVPPWTFGGGTKVEIK
notes: the Fab part is in PDB 8TBQ; human IgG1 heavy chain; the light chain is in PDB 8TBQ; human kappa light chain; IgG1 kappa; captured on an IgG capture sensor chip in SPR; source: ExpiCHO, transient transfection, purified (Protein A)
Kd [22]: > 960 nM

Continued, values first:

Kd [1]: 1.78 nM
koff [1]: 0.00219 s⁻¹
kon [1]: 1.23e+06 M⁻¹ s⁻¹
Kd [2]: 18.5 nM
koff [2]: 0.00566 s⁻¹
kon [2]: 306000 M⁻¹ s⁻¹
Kd [3]: 5.96 nM
koff [3]: 0.00321 s⁻¹
kon [3]: 539000 M⁻¹ s⁻¹
Kd [4]: 40.1 nM
koff [4]: 0.00842 s⁻¹
kon [4]: 210000 M⁻¹ s⁻¹
Kd [5]: 0.779 nM
koff [5]: 0.00213 s⁻¹
kon [5]: 2.74e+06 M⁻¹ s⁻¹
koff [6]: 0.0308 s⁻¹
kon [6]: 87200 M⁻¹ s⁻¹
Kd [7]: 134 nM
koff [7]: 0.0147 s⁻¹
kon [7]: 110000 M⁻¹ s⁻¹
koff [8]: 0.00129 s⁻¹
kon [8]: 3.68e+06 M⁻¹ s⁻¹
Kd [9]: 77 nM
koff [9]: 0.0101 s⁻¹
kon [9]: 131000 M⁻¹ s⁻¹
Molecule: VISTA-His (human VISTA, V-domain immunoglobulin suppressor of T-cell activation, with His tag) (from UniProt Q9H7M9 33-311) (natural protein)

binding result [21]: binds
B1: hSyndecan-2 (R&D Systems 2965-SD) (natural protein, human, UniProt P34741 19-144, looked up)
chain: ESRAELTSDKDMYLDNSSIEEASGVYPIDDDDYASASGSGADEDVESPELTTSRPLPKILLTSAAPKVETTTLNIQNKIPAQTKSPEETDKEKVHLSDSERKMDPAEEDTNVYTEKHSDSLFKRTE
notes: Syndecan-2, human; source: bought: R&D Systems 2965-SD
